B2: ϕC31 integrase S12A (cleavage-deficient mutant, full length) (enzyme, Streptomyces phage ϕC31, UniProt Q9T221 1-605, looked up)
chain: MDTYAGAYDRQARERENSSAASPATQRSANEDKAADLQREVERDGGRFRFVGHFSEAPGTSAFGTAERPEFERILNECRAGRLNMIIVYDVSRFSRLKVMDAIPIVSELLALGVTIVSTQEGVFRQGNVMDLIHLIMRLDASHKESSLKSAKILDTKNLQRELGGYVGGKAPYGFELVSETKEITRNGRMVNVVINKLAHSTTPLTGPFEFEPDVIRWWWREIKTHKHLPFKPGSQAAIHPGSITGLCKRMDADAVPTRGETIGKKTASSAWDPATVMRILRDPRIAGFAAEVIYKKKPDGTPTTKIEGYRIQRDPITLRPVELDCGPIIEPAEWYELQAWLDGRGRGKGLSRGQAILSAMDKLYCECGAVMTSKRGEESIKDSYRCRRRKVVDPSAPGQHEGTCNVSMAALDKFVAERIFNKIRHAEGDEETLALLWEAARRFGKLTEAPEKSGERANLVAERADALNALEELYEDRAAGAYDGPVGRKHFRKQQAALTLRQQGAEERLAELEAAEAPKLPLDQWFPEDADADPTGPKSWWGRASVDDKRVFVGLFVDKIVVTKSTTGRGQGTPIEKRASITWAKPPTDDDEDDAQDGTEDVAA
notes: ϕC31 integrase, Streptomyces phage ϕC31, UniProt Q9T221, 605-amino acid polypeptide chain, with S12A; also called full-length S12A integrase; source: E. coli BL21 (DE3) LOBSTR, pET28a, purified (HisTrap Ni-NTA, Superose 6 SEC)

Legend:
[1] = target: B2; test: SEC-MALS; SEC-MALLS with SDS-PAGE of the peaks: pre-formed integrase S12A–attB–attP synaptic complex mixed with RDF at 1:3 integrase:RDF molar ratio, 5 min room temperature; Superose 6 increase 10/300, 20 mM HEPES pH 7.4, 150 mM NaCl, 2 mM MgCl2, 0.1 mM TCEP, 25 °C; conditions: both partners purified
[2] = target: the molecule itself; test: SEC-MALS; SEC-MALLS of equal amounts of purified integrase–attB and integrase–attP complexes mixed; step: two dimer–att complexes to the tetramer–attB–attP synaptic complex; Superose 6 increase 10/300, 20 mM HEPES pH 7.4, 150 mM NaCl, 2 mM MgCl2, 0.1 mM TCEP, 25 °C
[3] = target: the molecule itself; test: cryo-EM structure; WT integrase–attL60 dimer complex, without RDF; 20 mM HEPES pH 7.4, 150 mM NaCl, 2 mM MgCl2, 0.1 mM TCEP; 0.4 mg/ml
[4] = target: the molecule itself; test: SEC-MALS; SEC-MALLS of integrase–attL complexes, without RDF; step: dimer–attL to attL–attL synaptic complex; Superose 6 increase 10/300, 20 mM HEPES pH 7.4, 150 mM NaCl, 2 mM MgCl2, 0.1 mM TCEP, 25 °C

B1: ϕC31 Recombination Directionality Factor (RDF), gp3 (natural protein, Streptomyces phage ϕC31, UniProt Q9T216 1-244, looked up)
chain: MAKRSIWAGDEDNKPKKRETYADDTVGRFHSGYSETNERGKVVPVALDKWRISTGEQSVADAVAQLFGGTPVENEESTSENFIDVFTDRPKVPVIIEADGIHWDMKLWLNGKLKHHCDGFDFVSHADEEMIGQPCGCPKLFDERKAAAKEYDAPNPAITVTFTLADDPELGRFKFQTGSWTLFKVLHEAEDDVERVGKGGAVLANLELELVEYTPKRGPMRNKLVSYYKPTITVLKSYNDAIAD
notes: RDF gp3 protein of Streptomyces phage ϕC31, UniProt Q9T216; residues 23–239 were modelled in the cryo-EM structure; In the excisive synaptic complex structure the RDF stood as the C-terminal part of the fusion protein m9, not as the separate His-tagged protein; source: E. coli BL21 (DE3) LOBSTR, pET28a, purified (HisTrap Ni-NTA, Superdex 200 SEC)
Q: Does B1 bind [1]?
A: binds

Q: B2 was tested. Which “stoichiometry N” value [2] did it give?
A: 4

B3: ϕC31 integrase ΔNTD (residues 1–140 deleted) (domain or fragment, Streptomyces phage ϕC31, UniProt Q9T221 141-605, looked up)
chain: ASHKESSLKSAKILDTKNLQRELGGYVGGKAPYGFELVSETKEITRNGRMVNVVINKLAHSTTPLTGPFEFEPDVIRWWWREIKTHKHLPFKPGSQAAIHPGSITGLCKRMDADAVPTRGETIGKKTASSAWDPATVMRILRDPRIAGFAAEVIYKKKPDGTPTTKIEGYRIQRDPITLRPVELDCGPIIEPAEWYELQAWLDGRGRGKGLSRGQAILSAMDKLYCECGAVMTSKRGEESIKDSYRCRRRKVVDPSAPGQHEGTCNVSMAALDKFVAERIFNKIRHAEGDEETLALLWEAARRFGKLTEAPEKSGERANLVAERADALNALEELYEDRAAGAYDGPVGRKHFRKQQAALTLRQQGAEERLAELEAAEAPKLPLDQWFPEDADADPTGPKSWWGRASVDDKRVFVGLFVDKIVVTKSTTGRGQGTPIEKRASITWAKPPTDDDEDDAQDGTEDVAA
notes: ϕC31 integrase, UniProt Q9T221, residues 1–140 deleted from the 605-amino acid chain; source: E. coli BL21 (DE3) LOBSTR, pET28a, purified (HisTrap Ni-NTA, Superose 6 SEC)
Q: Does B3 bind [2]?
A: binds

B4: ϕC31 integrase (wild type) (enzyme, Streptomyces phage ϕC31, UniProt Q9T221 1-605, looked up)
chain: MDTYAGAYDRQSRERENSSAASPATQRSANEDKAADLQREVERDGGRFRFVGHFSEAPGTSAFGTAERPEFERILNECRAGRLNMIIVYDVSRFSRLKVMDAIPIVSELLALGVTIVSTQEGVFRQGNVMDLIHLIMRLDASHKESSLKSAKILDTKNLQRELGGYVGGKAPYGFELVSETKEITRNGRMVNVVINKLAHSTTPLTGPFEFEPDVIRWWWREIKTHKHLPFKPGSQAAIHPGSITGLCKRMDADAVPTRGETIGKKTASSAWDPATVMRILRDPRIAGFAAEVIYKKKPDGTPTTKIEGYRIQRDPITLRPVELDCGPIIEPAEWYELQAWLDGRGRGKGLSRGQAILSAMDKLYCECGAVMTSKRGEESIKDSYRCRRRKVVDPSAPGQHEGTCNVSMAALDKFVAERIFNKIRHAEGDEETLALLWEAARRFGKLTEAPEKSGERANLVAERADALNALEELYEDRAAGAYDGPVGRKHFRKQQAALTLRQQGAEERLAELEAAEAPKLPLDQWFPEDADADPTGPKSWWGRASVDDKRVFVGLFVDKIVVTKSTTGRGQGTPIEKRASITWAKPPTDDDEDDAQDGTEDVAA
notes: ϕC31 integrase, Streptomyces phage ϕC31, UniProt Q9T221, 605-amino acid polypeptide chain; Used only for the integrase–attL cryo-EM complex (dimer on attL60 DNA); also called WT integrase; source: E. coli BL21 (DE3) LOBSTR, pET28a, purified (HisTrap Ni-NTA, Superose 6 SEC)
Q: Does B4 bind [3]?
A: binds

B5: ϕC31 integrase S12A/E449K (enzyme, Streptomyces phage ϕC31, UniProt Q9T221 1-605, looked up)
chain: MDTYAGAYDRQARERENSSAASPATQRSANEDKAADLQREVERDGGRFRFVGHFSEAPGTSAFGTAERPEFERILNECRAGRLNMIIVYDVSRFSRLKVMDAIPIVSELLALGVTIVSTQEGVFRQGNVMDLIHLIMRLDASHKESSLKSAKILDTKNLQRELGGYVGGKAPYGFELVSETKEITRNGRMVNVVINKLAHSTTPLTGPFEFEPDVIRWWWREIKTHKHLPFKPGSQAAIHPGSITGLCKRMDADAVPTRGETIGKKTASSAWDPATVMRILRDPRIAGFAAEVIYKKKPDGTPTTKIEGYRIQRDPITLRPVELDCGPIIEPAEWYELQAWLDGRGRGKGLSRGQAILSAMDKLYCECGAVMTSKRGEESIKDSYRCRRRKVVDPSAPGQHEGTCNVSMAALDKFVAERIFNKIRHAEGDEETLALLWEAARRFGKLTKAPEKSGERANLVAERADALNALEELYEDRAAGAYDGPVGRKHFRKQQAALTLRQQGAEERLAELEAAEAPKLPLDQWFPEDADADPTGPKSWWGRASVDDKRVFVGLFVDKIVVTKSTTGRGQGTPIEKRASITWAKPPTDDDEDDAQDGTEDVAA
notes: ϕC31 integrase, UniProt Q9T221, with S12A and E449K; also called S12A/E449K double mutant; source: E. coli BL21 (DE3) LOBSTR, pET28a, purified (HisTrap Ni-NTA, Superose 6 SEC)
Q: Does B5 bind [4]?
A: binds

Source: article doi:10.1101/2025.05.02.651858, “Structural basis of unidirectional DNA recombination by the ϕC31 serine integrase” (bioRxiv, 2025)
